Assay results taken from article PMC6280533, “Construction and characterization of a synthetic Baculovirus-inducible 39K promoter”.

T1: IE-1 (IE1-His) (Bombyx mori nucleopolyhedrovirus (BmNPV), UniProt P33245 1-587)
T1 sequence: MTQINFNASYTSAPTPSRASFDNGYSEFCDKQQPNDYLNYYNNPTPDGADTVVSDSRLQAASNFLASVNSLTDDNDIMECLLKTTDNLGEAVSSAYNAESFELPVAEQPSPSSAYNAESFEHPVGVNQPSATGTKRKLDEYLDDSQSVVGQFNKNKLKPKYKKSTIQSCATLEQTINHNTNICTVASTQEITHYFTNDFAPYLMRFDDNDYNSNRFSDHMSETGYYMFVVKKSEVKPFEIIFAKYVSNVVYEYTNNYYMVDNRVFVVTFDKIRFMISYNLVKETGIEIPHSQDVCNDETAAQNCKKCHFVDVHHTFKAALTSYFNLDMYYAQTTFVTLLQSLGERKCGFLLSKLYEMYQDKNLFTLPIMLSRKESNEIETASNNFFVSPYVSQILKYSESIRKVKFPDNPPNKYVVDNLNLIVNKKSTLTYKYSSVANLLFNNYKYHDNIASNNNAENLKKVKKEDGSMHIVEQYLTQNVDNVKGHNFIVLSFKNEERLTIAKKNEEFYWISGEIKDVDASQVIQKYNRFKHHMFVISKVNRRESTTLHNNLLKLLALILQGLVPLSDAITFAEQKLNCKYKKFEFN


What was measured:
[1] = target: T1, IE-1 (IE1-His); assay: EMSA; probe 1, 2, 6 pmol/L; IE-1 0.8 ug/L (so in the source); details: protein: recombinant; tags: His (pCold-I); chain copies: 2; label: 5' biotin; blunt
[2] = target: T1, IE-1 (IE1-His); assay: EMSA; details: protein: recombinant; tags: His (pCold-I); chain copies: 2; label: 5' biotin; blunt

Binder	binding result [1]	binding result [2]
39K probe 3 (-310 to -355) (dsDNA) DNA 1: AATATTTTAATTATATGAACGACAAACAATTGATCACGTACGATTA DNA 2: TAATCGTACGTGATCAATTGTTTGTCGTTCATATAATTAAAATATT	binds	
39K probe 2 (-386 to -431) (dsDNA) DNA 1: GACTATCGTATAATATTAAAACCGCGACGCTTCAATTGCGAAATAA DNA 2: TTATTTCGCAATTGAAGCGTCGCGGTTTTAATATTATACGATAGTC		no binding
39K probe 1 (-486 to -532) (dsDNA) DNA 1: AGTATTTGATATACGTAGGCGTCGTGCGCGGCAACTTGATTGACGTG DNA 2: CACGTCAATCAAGTTGCCGCGCACGACGCCTACGTATATCAAATACT		no binding
39K probe 4 (+2 to +47) (dsDNA) DNA 1: AGTAATTACCGACAAATGTTCTAAGCGTAAGGTGTGTCTTCATCAC DNA 2: GTGATGAAGACACACCTTACGCTTAGAACATTTGTCGGTAATTACT		no binding
